Measured values as given in patent US20130331690A1, “VASCULAR IMAGING AGENTS” (GE HEALTHCARE AS, priority 2010, published 2013).

Assays:
[1] = of the fluorescence efficiency of fluorescein; cited from earlier work
[2] = Optical biodistribution (ADME profile) in MatBIII orthotopic tumor model; assay type: in vivo, rat; settings: for Biodistribution, Bladder / Biodistribution, Blood / Biodistribution, Eye / Biodistribution, Kidney / Biodistribution, Liver / Biodistribution, Skin / Biodistribution, Spleen / Biodistribution, Tumor: MatBIII tumor-bearing rats, 125 nmol/kg
Description: (§1) In vivo studies were carried out with female Fischer 344 rats or severe combined immunodeficient (SCID) mice, each with an age between 4 and 8 weeks. Animals were housed with non-fluorescent food (Harlan Labs, cat. #TD.97184) and water ad libitum and a standard 12 hour day-night lighting cycle. 1×10^6 cells (100 μL) were injected, using a 27 gauge needle, directly orthotopically into the mammary fat pad of the animal. After allowing 7 days for MatBIII tumor growth (˜1 cm in diameter), animals were injected with test agent and imaged.
The ADME profile of Compound 1 was studied by performing optical biodistribution studies in the MatB III in vivo orthotopic tumor model. Thus, a dose of 125 nmol/kg (volume ˜250-300 μL) was used for the study with an equal volume of PBS used as a negative control. For naïve animals, each tissue type was split into four tubes to ensure sufficient volume for standard preparation. Tissues included blood, bladder/urine, liver, kidney, spleen, eyes, fat, muscle, tumor, and skin collected from the contralateral side from tumor. Using the supernatant from naïve samples (pooled by tissue type), standards were made by adding agent at concentrations of 75 μM, 37.5 μM, 3.75 μM, 0.375 μM and 0 μM, dilutions made with PBS. This yielded a final concentration of 20% injected dose (ID), 10%, 1%, […] and 0. To determine the amount of dye contained in each tissue type, 90 μL of sample or standard was read on a spectrophotometer at settings of 710 excitation/805 Emission.
Samples were adjusted for weight, but there was some sample-to-sample variation.

[3] = Blood clearance vs time, bi-phasic exponential decay curve fit; assay type: in vivo, rat; settings: rats
MatBIII tumour model = assay: In vivo fluorescence imaging in the rat MatBIII tumour model; settings: fluorescence image 1 hour after iv injection, FIG. 2
Description: as §1
Compound 1 was studied in the MatBIII model described in Example 3. The dose was either 125 or 250 nmol dye/kg body weight. The fluorescence imaging system was comprised of a 12 bit cooled CCD camera (Hamamatsu ORCA), and with a 735 laser source providing the excitation light. The fluorescence signal was filtered with a band pass emission filter set (810 nm centre frequency, 90 nm bandwidth). 50 ms exposure time was used with 2×2 binning.
For immobilisation during the optical imaging procedure, the animals were anaesthetized in a coaxial open mask to surgical level anaesthesia with Isoflurane (typically 2-3%) with oxygen as the carrier gas. During injection and intermediate time point imaging a lighter anaesthesia level was used. The animals were imaged from above, lying on their backs. […]

In the case of `CC1(C)C(/C=C/C=C/C=C/C=C2\N(CCCCS(=O)(=O)O)c3ccc4ccccc4c3C2(C)C)=[N+](CCCCS(=O)(=O)[O-])c2ccc3ccccc3c21` [ICG, indocyanine green], the “Fluorescence efficiency relative to fluorescein” value [1] is listed as 4%.
For Bis-Cy7 PEG-31k Conjugate [Compound 1], the “Retention of the agent in all of the collected tissues” value ([2]; 48 h post injection) was under 1 % ID/g, the “Biodistribution, Bladder” value ([2]; 2 min) was 0.00 % ID/g and the “Biodistribution, Blood” value ([2]; 2 min) was 6.56 % ID/g. For the same compound, the “Biodistribution, Eye” value ([2]; 2 min) was 1.93 % ID/g, the “Biodistribution, Kidney” value ([2]; 2 min) was 0.12 % ID/g and the “Biodistribution, Liver” value ([2]; 2 min) was 0.24 % ID/g. For the same compound, the “Biodistribution, Skin” value ([2]; 2 min) was 0.00 % ID/g, the “Biodistribution, Spleen” value ([2]; 2 min) was 0.64 % ID/g and the “Biodistribution, Tumor” value ([2]; 2 min) was 0.00 % ID/g. The “Biodistribution, Bladder” value ([2]; 5 min) was 0.23 % ID/g, the “Biodistribution, Blood” value ([2]; 5 min) was 5.65 % ID/g and the “Biodistribution, Eye” value ([2]; 5 min) was 0.14 % ID/g. For the same compound, the “Biodistribution, Kidney” value ([2]; 5 min) was 1.35 % ID/g, the “Biodistribution, Liver” value ([2]; 5 min) was 0.46 % ID/g and the “Biodistribution, Skin” value ([2]; 5 min) was 0.56 % ID/g. The “Biodistribution, Spleen” value ([2]; 5 min) was 0.64 % ID/g, the “Biodistribution, Tumor” value ([2]; 5 min) was 0.53 % ID/g and the “Biodistribution, Bladder” value ([2]; 10 min) was 1.24 % ID/g. The “Biodistribution, Blood” value ([2]; 10 min) was 4.26 % ID/g, the “Biodistribution, Eye” value ([2]; 10 min) was 1.70 % ID/g and the “Biodistribution, Kidney” value ([2]; 10 min) was 0.41 % ID/g. The “Biodistribution, Liver” value ([2]; 10 min) was 0.03 % ID/g, the “Biodistribution, Skin” value ([2]; 10 min) was 0.00 % ID/g and the “Biodistribution, Spleen” value ([2]; 10 min) was 1.00 % ID/g. For the same compound, the “Biodistribution, Tumor” value ([2]; 10 min) was 0.00 % ID/g, the “Biodistribution, Bladder” value ([2]; 60 min) was 0.86 % ID/g and the “Biodistribution, Blood” value ([2]; 60 min) was 3.05 % ID/g. The “Biodistribution, Eye” value ([2]; 60 min) was 0.33 % ID/g, the “Biodistribution, Kidney” value ([2]; 60 min) was 0.51 % ID/g and the “Biodistribution, Liver” value ([2]; 60 min) was 1.02 % ID/g. The “Biodistribution, Skin” value ([2]; 60 min) was 0.05 % ID/g, the “Biodistribution, Spleen” value ([2]; 60 min) was 0.28 % ID/g and the “Biodistribution, Tumor” value ([2]; 60 min) was 0.00 % ID/g. The “Biodistribution, Bladder” value ([2]; 180 min) was 0.00 % ID/g, the “Biodistribution, Blood” value ([2]; 180 min) was 2.19 % ID/g and the “Biodistribution, Eye” value ([2]; 180 min) was 0.12 % ID/g. The “Biodistribution, Kidney” value ([2]; 180 min) was 0.63 % ID/g, the “Biodistribution, Liver” value ([2]; 180 min) was 2.04 % ID/g and the “Biodistribution, Skin” value ([2]; 180 min) was 0.06 % ID/g. The “Biodistribution, Spleen” value ([2]; 180 min) was 0.32 % ID/g, the “Biodistribution, Tumor” value ([2]; 180 min) was 0.05 % ID/g and the “Biodistribution, Bladder” value ([2]; 2880 min) was 0.00 % ID/g. For the same compound, the “Biodistribution, Blood” value ([2]; 2880 min) was 0.02 % ID/g, the “Biodistribution, Eye” value ([2]; 2880 min) was 0.44 % ID/g and the “Biodistribution, Kidney” value ([2]; 2880 min) was 0.00 % ID/g. For the same compound, the “Biodistribution, Liver” value ([2]; 2880 min) was 0.23 % ID/g, the “Biodistribution, Skin” value ([2]; 2880 min) was 0.00 % ID/g and the “Biodistribution, Spleen” value ([2]; 2880 min) was 0.00 % ID/g. The “Biodistribution, Tumor” value ([2]; 2880 min) was 0.61 % ID/g, the “Blood half-life t1/2α” value [3] was 4.6 min and the “Blood half-life t1/2β” value [3] was 4.33 h. The “Image contrast of blood vessels and blood-rich tumour” value (MatBIII tumour model) was “positive image contrast”.
